These results are taken from patent publication US20160207996A1 (ARGEN X N V, published 2016).

Sequences and labels used below:
T1: hNav1.5-B1-C1-D1-llFc (human)
T1 construct: also called Nav1.5 extracellular loop B1-C1-D1 llamaFc chimera
T1 chain: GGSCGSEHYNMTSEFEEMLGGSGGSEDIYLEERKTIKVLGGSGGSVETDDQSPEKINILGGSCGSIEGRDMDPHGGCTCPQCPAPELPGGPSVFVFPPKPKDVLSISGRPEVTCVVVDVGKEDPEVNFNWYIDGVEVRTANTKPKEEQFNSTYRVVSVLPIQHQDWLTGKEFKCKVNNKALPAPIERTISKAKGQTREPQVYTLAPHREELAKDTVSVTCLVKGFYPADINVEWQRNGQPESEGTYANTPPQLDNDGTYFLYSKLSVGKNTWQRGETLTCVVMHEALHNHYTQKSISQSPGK

T2: hNav1.7-loopA3-llama Fc fusion (human)
T2 construct: also called hNav1.7-loopA3-llFc; loopA3-llamaFc chimera
T2 chain: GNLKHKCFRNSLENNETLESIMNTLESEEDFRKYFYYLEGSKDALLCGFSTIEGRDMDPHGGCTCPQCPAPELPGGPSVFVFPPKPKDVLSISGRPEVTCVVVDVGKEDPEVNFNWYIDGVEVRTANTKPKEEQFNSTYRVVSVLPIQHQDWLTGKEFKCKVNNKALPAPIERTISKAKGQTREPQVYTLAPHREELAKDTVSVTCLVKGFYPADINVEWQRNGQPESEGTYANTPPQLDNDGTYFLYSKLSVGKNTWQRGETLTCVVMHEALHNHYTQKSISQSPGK

T3: hNav1.7-loopB1-C1-D1-llama Fc (human)
T3 construct: whole entry: loops B1, C1, D1 joined by linkers, llama Fc; also called hNav1.7-loopB1-C1-D1-llfc
T3 chain: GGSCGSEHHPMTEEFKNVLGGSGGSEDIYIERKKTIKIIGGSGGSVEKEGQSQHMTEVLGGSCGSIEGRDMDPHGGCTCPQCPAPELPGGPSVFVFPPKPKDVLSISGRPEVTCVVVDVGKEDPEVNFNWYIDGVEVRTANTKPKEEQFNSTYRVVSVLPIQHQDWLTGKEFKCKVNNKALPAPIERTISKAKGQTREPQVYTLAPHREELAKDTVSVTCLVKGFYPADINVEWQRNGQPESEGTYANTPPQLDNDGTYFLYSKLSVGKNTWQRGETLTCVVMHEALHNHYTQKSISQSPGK

T4: RatB1-C1-D1-llFc (rat)
T4 construct: also called rat Nav1.7 loopB1-C1-D1 llamaFc chimera
T4 chain: T3 chain with R32K, S52T, Q53E, H54Y, T56D, E57Y

B1: 9A11 (antibody, human IgG1, V domains shown)
VH: EVQLVQPGAEVRRPGAAVKVSCKASGFALISSYIDWVRQAPGQGLEWMGRIDPEDGGTSYAQKFQGRVTVTVDTATSTAYVELSSLRSDDTGVYFCMVGDSGYWGQGTQVTVSS
VL: ATMLTQSPGSLSVVPGESASISCKASQSLVHTDGKTYLSWLLQKPGQSPQRLIYQVSTRGSGVPDRVTGSGSGTDFTLKISGVKAEDAGVYYCAQTTYYPPTFGQGTKVELK
B2: 9C12 (antibody, V domains shown)
VH: B1 VH with A79V
VL: ATMLTQSPASLSVVPGESASISCKASQSLVHSDGKTYLYWLLQKPGQSPQRLIYQVSNRGSGVPDRFTGSGSGTDFTLKISGVKAEDAGVYYCAQHTYYPPSFGSGTRLEIK
notes: chimeric llama-human, human IgG1 constant domains
B3: 6H8 (antibody, human IgG1, V domains shown)
VH: EVQLVESGGGLVQPGGTLRLSCAASGFTFSNYWMHWVRQAPGKGLEWVSVIDRGGGGTRYADSVKGRFTISRDNAKNTLYLRMNSLKPEDTALYYCTRDRNGEYDYWGRGTQVTVSS
VL: DIQMTQSPSSVTASAGEKVTINCKSSQSVLYSSNQKNYLAWYQQRLGQSPRLLIYWASTRESGVPDRFSGSGSTTDFTLTINNFQPEDAAVYYCQQGYSAPLTFGQGTKVELK
B4: 4H6 (antibody, human IgG1, V domains shown)
VH: QVQLQESGPGLVKPSQTLSLTCTVSGGSITNYGWSWIRQPPGKGLEWMGVIAYDGSTYYSPSLKSRTSISRDTSKNQFSLQLSSVTPEDTAVYYCASAMVTTSSPWVKTFGAWGQGTQVTVSS
VL: QAGLTQPPSVSGSPGKTVTISCAGTSSDVGYGNYVSWYQQLPGMAPKLLLYSVNKRASGIADRFSGSKSGNTASLTISGLQSEDEADYYCGCYDSSLSTPVFGGGTKLTVLG
B5: 3E1 (antibody, human IgG1, V domains shown)
VH: EVQVQESGGGLVQPGGSLRLSCAASGFTFSSYWMYWVRQAPGKGLEWVSAINTGGGSTYYADSVKGRFTISRDNAKNTLYLQMNSLKPEDTALYYCARGPGYSGKYIEGWAYWGQGTQVTVSS
VL: DIVMTQSPSSVTASVGEKVTINCKSSQSVVSGSKQKSYLNWYQQRPGQSPRLLIYYASTQESGIPDRFSGSGSTTDFTLTISSVQPEDAAVYYCQQAYSAPYSFGSGTRLEIK
B6: 4F6 (antibody, human IgG1, V domains shown)
VH: QLQLVESGGGLVQPGGSLRLSCAASGFTFDDYAMSWVRQAPGKGLEWVSAISWNGGSTYYAESMKGRFTISRDNAKNTLYLQMNSLKSKDTAVYYCARRRYGLGSEYDYWGQGTQVTVSS
VL: HSAVTQPSAVSVSLGQTARITCQGTNLRSSYVHWYQQMPGQAPVLVIYRDSERPSGIPERFSGSSSGGTATLAISGAQAEDEADYYCQSAHRSESAVFGGGTHLTVLG
B7: 4E8 (antibody, human IgG1, V domains shown)
VH: B6 VH with Q1E, L2V, V5Q
VL: NFMLTQPSAVSVSLGQTARITCQGSSFGSSYAHWYQQMPGQAPILVIYRDSERPSGIPDRFSGSNSGGTATLTISGAQAEDEADYYCQSGSSSGNAHAVFGGGTHLTVLG
B8: 4F7 (antibody, human IgG1, V domains shown)
VH: QVQLQESGPGLVKPSQTLSLTCTVSGGSITTSFYAWSWIRQPPGKGLEWMGVIAYDGRTFYSPSLKSRTHISRDTSKNQFSLQLSSVTPEDTAVYYCARGGVVAWSYDYWGQGTQVTVSS
VL: SYELTQSPSVSVALRQTAKITCGGNDIGSKSTQWYQQKAGQAPVLVIYADSRRPSGIPERFSGSNSGNTATLTISGAQAEDEADYYCQVWDSRADAAVFGGGTHLTVLG

Positions count from the first letter of the chain named.

The target of one assay is T1, hNav1.5-B1-C1-D1-llFc. In words: binding ELISA; the panel prints no target, by paragraph 288 and paragraph 555 the coated hNav1.5 loop B1-C1-D1-llama Fc. The text has this: The therapeutic potency of an anti-hNav1.7 antibody will highly depend on the lack of binding to other Nay family members. Of particular interest is hNav1.5, which is expressed on cardiac muscle cells. As such, cross-reactive binding of hNav1.7 antibodies to hNav1.5 could lead to heart failure. To assay the specificity of the mAbs derived from DNA immunization for hNav1.7, the corresponding loopA3 and loopB1-C1-D1 sequences of hNav1.5 were cloned as llamaFc chimera and cross-reactivity was determined using a binding ELISA (FIG. 8). All clones, except clone 9A6 and 9H4, show no cross-reactivity to hNav1.5. In addition, cross reactivity for hNav1.2 was tested for the loopA3-binding clones 8A7 and 8B6 using hNav1.2 and hNav1.7 derived monomeric, GST-tagged loopA3 peptides (Abnova, H00006326-Q01 (hNav1.2) and H00006335-Q01 (hNav1.7)). Again, no cross-reactive binding was observed.
Turning to B1, the binding result was “no binding (tested: about 130 nM)”.
Same read-out and setting: to B2 belongs “no binding (tested: about 130 nM)”.

For another assay, the target named is human Nav1.7 (full length) (human) (UniProt Q15858). In words: cell-based or functional assay.
Turning to B1, the % inhibition of inward current following P02 voltage protocol, 10 µg/ml came out at 16%; the % inhibition of inward current following P02 voltage protocol, 25 µg/ml is 49.4%; the % inhibition of inward current following P02 voltage protocol, 100 µg/ml came out at 62.3%.

The target of a further assay is T2, hNav1.7-loopA3-llama Fc fusion. The assay can be described thus: binding ELISA on coated loop-llama Fc chimera (20 ng/well), OD620. The procedure: For all DNA-immunization derived mAbs the binding affinity for the various hNav1.7-loop-llama Fc chimeras was tested in a binding ELISA. Therefore, a Maxisorp plate (Nunc) was coated with 20 ng/well of hNav1.7-loopA3-llama Fc, hNav1.7-loopB1-C1-D1-llama Fc or hNav1.7-loopC3-llama Fc. Remainder of the ELISA setup is as described above. […] Only at very high concentration minor cross-reactivity is observed for some clones.
On the technique in general: ELISA stands for enzyme-linked immunosorbent assay.
As to B2, the binding result is reported as “no binding (tested: about 66 nM)”.

For another assay, the target named is T3, hNav1.7-loopB1-C1-D1-llama Fc. The assay can be described thus: ELISA, coated loop-B1-C1-D1-llama Fc 20 ng/well, mAb titrated. The procedure:
(§1) mAbs originating from the loopA3-llama Fc immunization were assayed for their affinity for hNav1.7-loopA3. Therefore, a Maxisorp plate was coated with 10 ng/well of loopA3-llamaFc chimera and incubated overnight at 4° C. The next day, the plate was blocked with PBS+1% casein for 2 hours at RT. Subsequently a concentration gradient of antibodies was applied (range 0.25 pM-66 nM) for another hour. Antibody binding to loopA3 was detected using a HRP-conjugated anti-human Fc antibody (Abcam, Ab7499) (incubation 1 hour at RT, dilution 1/5000 in PBS+0.1% casein), followed by TMB addition and OD620 nm measurement. EC50 values were determined using GraphPad Prism software. For comparison purposes a known hNav1.7-loopA3 binding monoclonal antibody, UCB_932 (US2011/0135662), was tested.
In a next experiment, the binding affinity of the loop-specific mAbs was determined and compared to reference mAbs as described in US2011/0135662 (for loop A3: UCB_932, for loopB1-C1-D1: UCB_983, for loopC3: UCB_1066; US2011/0135662). Affinities were determined using an ELISA with a loop-coating of 10 ng/well (loopA3-llama Fc), 20 ng/well (loop-B1-C1-D1-llama Fc) or 50 ng/well (loopC3-llama Fc). The remainder of the experimental setup was identical to abovementioned binding ELISAs. Most of the mAbs show pM affinity for the respective hNav1.7 extracellular loop they are binding. […] The EC₅₀ for the reference mAbs could not be determined (nd) from the ELISA data available because the binding was too weak.
In turn, B1 returned an EC50 of 0.091 nM.
The same measure, in the same setting: to B2 belongs 0.22 nM.

In the next assay the target is T5, GST-tagged hNav1.7-loopA3 (human, UniProt Q15858 269-339).
T5 construct: monomeric GST-tagged peptide; also called hNav1.7-loopA3-GST; Nav1.7-loopA3-GST; not shown: GST tag
T5 sequence (Q15858 269-339 limits assumed): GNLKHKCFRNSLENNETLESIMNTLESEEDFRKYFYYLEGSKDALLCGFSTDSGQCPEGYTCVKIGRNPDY
In words: Biacore SPR, antigen on CM5 chip, mAb in flow. The procedure:
(§2) In a further experiment, affinity of the loopA3-binding mAbs was determined using Biacore Surface Plasmon Resonance (SPR) analysis.
(In SPR one partner is held on a chip, and binding of the other changes the refractive index at the surface.)
In the case of B3, the Kd stood at 0.000609 nM and the dissociation rate constant (koff) was 6.9e-07 s⁻¹.
In the same order, the values of B4 are 0.0505 nM and 1.54e-05 s⁻¹.
The like results for B5 were, in that order, 0.216 nM and 0.000356 s⁻¹.
The like results for B6 were, in that order, 3.35 nM and 0.00254 s⁻¹.
Molecule B7 registered a Kd of 45.2 nM and a koff of 0.00063 s⁻¹.
B8: binding was put at a Kd of 0.0825 nM and the koff was determined as 1.84e-05 s⁻¹.

Another assay deals with T2, hNav1.7-loopA3-llama Fc fusion. In words: Biacore SPR, antigen on CM5 chip, mAb in flow. The procedure: as §2
On to B3, for which the Kd worked out at 0.00181 nM and the koff is 3.58e-06 s⁻¹.
Regarding B4, binding was characterised by a dissociation constant (Kd) of 0.12 nM and the koff turned out to be 4.48e-05 s⁻¹.
In turn, B5 displayed a Kd of 0.2 nM and a koff of 0.00041 s⁻¹.
In the case of B6, the Kd stood at 5.1 nM and the koff stood at 0.00422 s⁻¹.
In the case of B7, binding was characterised by a dissociation constant (Kd) of 4.28 nM and the dissociation rate constant (koff) worked out at 0.000422 s⁻¹.
The like results for B8 were, in that order, 0.084 nM and 2.68e-05 s⁻¹.

The target is the same in the next assay. The assay can be described thus: ELISA, coated hNav1.7-loopA3-llama Fc, mAb titrated. The procedure: as §1
As for B3, the half-maximal effective concentration (EC50) turned out to be 0.066 nM.
The same measure, in the same setting: under B4 stands 0.067 nM; under B5, 0.063 nM; under B6, 0.874 nM.
Same read-out and setting: under B7 stands 0.129 nM.
Still for that read-out and setting: under B8 stands 0.057 nM.

In the next assay the target is T4, RatB1-C1-D1-llFc. The assay can be described thus: binding ELISA; the panel prints no target, by paragraph 562 the coated rat loop B1-C1-D1-llama Fc.
On to B2, for which the binding result is “binds”.

Broadly, the EC50 is the concentration that produces a half-maximal response. High values mean a less potent agent, low ones a more potent agent. The term Kd denotes a measure of binding affinity in units of concentration. High values mean lower affinity, low ones higher affinity. What is called koff is a measure of how fast the partners let go of each other. Lower therefore signals a long-lived complex.
